Results from patent publication EP1724347A2.
Where no end group is shown, it is not given here.

Target: GST-KIX
Assay: fluorescence polarization

GST-KIX, sequence (P45481 586-665): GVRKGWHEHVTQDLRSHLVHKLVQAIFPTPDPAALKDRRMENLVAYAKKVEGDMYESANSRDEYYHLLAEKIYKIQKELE

| Binder | Kd |
| --- | --- |
| GASPHTSSGDDAPVRRLSFFDILLDLYLDAPC(acetamidofluorescein) (designed binder) [unphosphorylated PPKID3] | 681 nM |
| GMSRVTPGGDDAPVRRLSFFYILRDLYLDAPC(acetamidofluorescein) (designed binder) [unphosphorylated PPKID2] | 7600 nM |
| GMSRVTPGGDDAPVRRLSFFYILRDLYLDAPC(acetamidofluorescein) (designed binder, also: phosphorylated, site not given here) [phosphorylated PPKID2] | 280 nM |

These reach a lower Kd. Values come first.

| Kd | Binder |
| --- | --- |
| 73 nM | GASPHTSSGDDAPVRRLSFFDILLDLYLDAPC(acetamidofluorescein) (designed binder, also: phosphorylated, site not given here) [phosphorylated PPKID3] |
| 31 nM | GASDMTYWGDDAPVRRLSFFYILLDLYLDAPC(acetamidofluorescein) (designed binder, also: phosphorylated, site not given here) [phosphorylated PPKID1] |
